# T1: CEACAM6 (Homo sapiens, UniProt P40199)
# T1 construct: 20 μg of PC-9 membrane protein extract was first denatured; endogenous in cells; host or cells: PC-9 cells
# T1 sequence (P40199 35-320): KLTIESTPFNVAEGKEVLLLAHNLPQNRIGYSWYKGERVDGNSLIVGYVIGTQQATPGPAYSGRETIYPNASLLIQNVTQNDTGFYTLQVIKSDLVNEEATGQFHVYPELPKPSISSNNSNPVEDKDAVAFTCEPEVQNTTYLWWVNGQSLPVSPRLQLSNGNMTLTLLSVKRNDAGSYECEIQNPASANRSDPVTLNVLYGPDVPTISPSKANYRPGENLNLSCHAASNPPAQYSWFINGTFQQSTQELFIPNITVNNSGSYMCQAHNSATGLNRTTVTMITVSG
# B1: GR6A04: mouse IgG1, κ anti-CEACAM6 monoclonal antibody, VH SEQ ID NO:1, VL SEQ ID NO:2, binds N-glycosylated CEACAM6 (antibody, V domains shown)
# VH: SGPELVKPGASVKMSCKASGNTFTSYVMHWVKQKPGQGLEWIGYINPYNDGTKYNEKFKGKATLTSDKSSSTAYMELSSLTSEDSAVYYCARSTARATPYFYAMDYWGQGTSVTVSS
# VL: DILMTQSPSSLAVTAGEKVTMRCKSSQSLLWSVNQNSYLSWYQLKQGQPPKLLLYGASIRESWVPDRFTGSGSGTDFTLTISNVHVEDLAVYYCQHNHGSFLPYTFGGGTKLEIK
# modifications: Isolated antibody fragment
# Tests used:
# A549−GR6A04+ cells = assay: Subcutaneous xenograft model; format: in vivo, NCr Nude mice; settings: 10 mg/kg, 3 doses on D0, D4 and D8, start at tumour size >150 mm3
# Experimental: Xenograft models were established using A549−GR6A04+ cells in NCr Nude mice. 5E6 cells in DMEM basal media were mixed at a 1:1 ratio with Matrigel, and injected subcutaneously at a volume of 200 μl. Tumours were allowed to form and reach a size of >150 mm^3, before they were randomised into 5 groups of 5 mice each. The groups were treated with mAbs as follows: (1) Buffer control; (2) GR6A04-MMAE; (3) Hu-GR6A04; (4) GR6A04; (5) MG1.45-MMAE isotype control. mAbs were injected via tail vein injection at a total volume of 100 μl. Each dose, were applicable, is at 200 μg (equivalent to 10 mg/kg), and treatment was done every 4 days, for a total of 3 doses (Day 0, 4 and 8). Tumour size was monitored over 50 days.
# [1] = system: PC-9 Gefitinib resistant clones (CL75, CL86, CL131) and parental PC-9; assay: Flow cytometry binding on PC-9 and gefitinib resistant PC-9 clones; format: cell-based
# Experimental: Cells were harvested as single cell suspensions using trypsin. 1E5 cells were used per sample, and incubated with 100 μl of mAb culture supernatant for 30 min. Cells were then washed with 1% bovine serum albumin in PBS, and further incubated with 100 μl of goat anti-mouse antibody fluorescein isothiocyanate (FITC)-conjugated (1:500, DAKO, Denmark) for 15 min at 4° C. in the dark. Cells were again washed and resuspended in 200 μL of 1% BSA/PBS for analysis on Guava® easy Cyte 8HT Benchtop Flow Cytometer (Merck Millipore, USA). For interrogation of […] binding, cells were fixed with 4% PFA/PBS (Affymetrix, USA) at room temperature for 10 min, washed in PBS, and permeabilised with 0.1% triton/PBS for 5 min at room temperature, before proceeding with incubation with mAb supernatant/primary antibody. For staining with propidium iodide, PI was added to a final concentration of 5 μg/mL for 5 min just prior to analysis by the flow cytometer.
# CEACAM6 = biological target: T1, CEACAM6; assay: Western blot / flow cytometry binding after PNGase or Tunicamycin treatment; settings: for binding to the antigen band after PNGase treatment: Western blot, PC-9 lysate, N-glycans removed
# Experimental: Membrane proteins were extracted from PC-9 cell pellets using the Membrane Protein Extraction Kit (BioVision, USA). Briefly, cell pellets of 5E7 cells were resuspended in 1 mL of Homogenize Buffer and cell membranes broken in a dounce homogenizer. This was transferred into an Eppendorf tube and centrifuged at 700×g for 10 min at 4° C. to remove cell debris. The supernatant was transferred to a new Eppendorf tube and centrifuged at 12,000×g for 30 min at 4° C. to pellet the membrane. The membrane was finally resuspended in 500 μl of 1×Cell Lysis Buffer (Cell Signaling Technology, USA) containing protease inhibitors (Pierce ThermoScientific, USA). The membrane protein solution was clarified with by centrifugation at 15,000×g for 5 min at 4° C., to remove any insoluble proteins. Protein was quantified using the Pierce […] Protein Assay Reagent.
# PC-9 membrane protein extracts, or IP products were denatured by in protein loading dye containing SDS at a final concentration of 1%, and heated at 95° C. for 5 min. The sample was then loaded into pre-cast gradient gel (NuPAGE 4-12% gradient gel, Invitrogen), and separated by SDS-PAGE running MOPS Running Buffer (NuPAGE Invitrogen, USA). After gel electrophoresis, the resolved proteins were transferred onto a polyvinylidene fluoride (PVDF) membrane (BioRad, USA) in a transfer buffer containing 20% methanol, 10% Tris-Glycine in DI water at constant voltage of 110V for 90 min.
# The membrane was then blocked with 5% milk prepared in PBS/0.1% Tween-20 (PBS-T) for 30 min at room temperature. The membrane was then washed in PBS-T, followed by overnight incubation of GR6A04 at 2 μg/mL in 2.5% milk at 4° C. Subsequently, the membrane was washed in PBS-T, before incubation with goat anti-mouse secondary antibodies horseradish peroxidase-conjugated (1:10000, Dako) for 1 hour at room temperature. […]
# PNGase digestion was carried out according to manufacturer's protocol (New England Biolabs). […] Digested proteins were subsequently analysed by Western blotting as described above. […]
molecule,measurement,setting,value
B1,tumour growth versus buffer control,A549−GR6A04+ cells,slower growth compared to the buffer control
same,tumour growth versus buffer control,A549−GR6A04+ cells; listed as Gr6A04,repression of tumour growth
same,binding,[1]; Gefitinib sensitive parental PC-9 and another GR PC-9 clone not used in immunisation,similarly high binding
same,percentage positive-binding (reactivity),"[1]; three PC-9 Gefitinib resistant clones used for immunisation, FL-1 gated at 2% on secondary-only control",> 50%
same,binding after PNGase and Tunicamycin treatment,"CEACAM6; PNGase digestion, Tunicamycin N-glycosylation inhibitor",affected
same,binding to the antigen band after PNGase treatment,CEACAM6,abolished binding
same,binding to the antigen band after PNGase treatment,CEACAM6; listed as GR 6A04,abolished
